The values below are quoted from earlier work in paper PMC3773300 (Journal of inorganic biochemistry, 2013).

For the data set the following is noted: Mb.

Turning to “Mb: Myoglobin, heme protein involved in reversible O2 binding”, the redox potential is on record as 59 mV.
